{"source": "the DeepSol protein solubility set"}
{"assay": "soluble on expression in E. coli; label from the status in PepcDB or PDB records"}
{"sequence": "MARPLVPSSQKALLLELKGLQEEPVEGFRVTLVDEGDLYNWEVAIFGPPNTYYEGGYFKARLKFPIDYPYSPPAFRFLTKMWHPNIYETGDVCISILHPPVDDPQSGELPSERWNPTQNVRTILLSVISLLNEPNTFSPANVDASVMYRKWKESKGKDREYTDIIRKQVLGTKVDAERDGVKVPTTLAEYCVKTKAPAPDEGSDLFYDDYYEDGEVEEEADSCFGDDEDDSGTEESLEHHHHHH", "soluble on expression in E. coli": "not soluble"}
{"sequence": "MLSIREYLEAGETTISNLLFDHYQKIGLKDDEFLFLLQLFRSQNAGDLFPDLMAIAETMGKTPDTIYKLLNQLVSRGFIRIETQQNQKGQMMDTYDLLPVFQKIQLFLQTSKEKQVVANHEDEIKQLYQGFEKEFGRPLSPIELEMIGQWLNTDHYSPELIRLALREAVLNQAYSLKYIDRILLAWERKNITTKEQVAADQKKRKDSMIQNEIEQQGQTQESLPKVTLHNWLNPEDSE", "soluble on expression in E. coli": "soluble"}
{"sequence": "MKVAILGYGTVGSAVVKFLLENDKLIRARCGQSITPVIALARSPKKNALIPITHSVAEILNADVDVFVELMGGVDEAFKIVSEILKKKKAVVTANKAMLAYHRYELENLAKNLAFGYEASVAGGIPIIKVLKEGLSANNILAIKGILNGTSNYILSSMSQKNMSFKQALQIAQNLGYAEADPTFDIEGQDAAHKLLVLSSIAYNLKAKPEDILIEGISEIAPEDMYFANEFEFTIKLLGIAKVRENKVELRVHPTMIDKEKMLAKVDGVMNAISINGDLLGESLYYGAGAGGEATASAVISDLMDIARDQVKAPMLGFVNTLEYKLLSKDEIYTKYYLRVKVEDKIGILSKITQLMSENNISIDSFLQKPKKNDENYSTLFFTTHLTYEKSIQNLLEILRKQDFIKTKPFMMRIE", "soluble on expression in E. coli": "not soluble"}
{"sequence": "QRDIPVQFIVAGVKRSDLRNLVEERIRKEGTKTREIRYREIGHYNGSVENIHLSVDKYEAAGGTEYFISYVTDDDHIVGFVRLRQPSEMAHRQEMLGSAIVRELKVFGQEVPVGRRDLKNWQHHGYGMRLMEEAERIARDDLGLDRILVISGIGVRQYFRKIGYEDLGPYVAKSLK", "soluble on expression in E. coli": "not soluble"}
{"sequence": "STDDKDVLRDVWFGRIPTCFTLYQDEITEREAEPYYLLLPRVSYLTLVTDKVKKHFQKVMRQEDVSEIWFEYEGTPLKWHYPIGLLFDLLASSSALPWNITVHFKSFPEKDLLHCPCKDAVEAHFMSCVKEADALKHKSQVINEMQRKDHKQLWMGLQNDLTSFGPSTGNSWNTLQKKMDFVISLLEYIRPQLNGLSFRSCSVLWPQMDSCIPLEIS", "soluble on expression in E. coli": "soluble"}
{"sequence": "MGSDKIHHHHHHMRILVTNDDGIQSKGIIVLAELLSEEHEVFVVAPDKERSATGHSITIHVPLWMKKVFISERVVAYSTTGTPADCVKLAYNVVMDKRVDLIVSGVNRGPNMGMDILHSGTVSGAMEGAMMNIPSIAISSANYESPDFEGAARFLIDFLKEFDFSLLDPFTMLNINVPAGEIKGWRFTRQSRRRWNDYFEERVSPFGEKYYWMMGEVIEDDDRDDVDYKAVREGYVSITPIHPFLTNEQCLKKLREVYD", "soluble on expression in E. coli": "not soluble"}
{"sequence": "MKVAIASDHGGVHIRNEIKELMDELQIEYIDMGCDCGSGSVDYPDYAFPVAEKVVSGEVDRGILICGTGIGMSISANKVKGIRCALAHDTFSAKATREHNDTNILAMGERVIGPGLAREIAKIWLTTEFTGGRHQTRIGKISDYEEKNL", "soluble on expression in E. coli": "soluble"}
{"sequence": "MKYTFLLLCAIFGCTLAMRQQSVAVSGKLMCGSKPASGVKVKLWDEDDGPDPDDVLDEGFTNNDGTFRLEGSERELTNIDPVFKVYHDCDDGIIPGQRKIKFRIPNKYISAGGRAQKTFEIGVLNLETIFPKEERDLL", "soluble on expression in E. coli": "not soluble"}
{"sequence": "MGSDKIHHHHHHMRAHCRHSLWRKENMMESKIYPHEVSLETIDSMPDEYRDTLIHQLLANGEGELSAGDTYIDSFYPLAPDADERYICAQFAAEEVDHFRRFSRLLAELEVDTSHMLSQKKAERRYFAAESMTTDFRSWEERAAFSFLCELEGHYQIKEMVSSSYLPLRAEAEAVLKEEARHFSHGALLMRRAAKDGDARARAQDALDRLYPMAMDMFGRSDSHRSDAAVSWGLRQYTNGQLRDRYRDDVRGHIQRLGYEVPDETARRKYF", "soluble on expression in E. coli": "not soluble"}
{"sequence": "MGSDKIHHHHHHMSFRMIEPETIDDAAFVSSTVPETDAPVWDASTDYPFSDPDNPEEVIVEVGQHAIYRAVAPSGPSHGGAVDPATDTGNTKWVKIRSTNRWRVFDEYIGDPSVQANSAQWVITAPKVIDSVSLFGLYALSVTVLVRDSGGAEVYNQTYSLQDESGVVDLYTYLTSPIILSDRLVITDIPPYAGAKVTVTAEASGEDVEVGQIVIGRKEEIGVTIDEIPLSIQDFSRKERDPDFGRVSLLEKDFADEMPVAFVFPTSRASYLKSRLASRRAKLTVYSSDGPYKANEFSVYGFYQSFQVVPRIGSESEGILELESIT", "soluble on expression in E. coli": "not soluble"}
{"sequence": "IVHREHHESREEVSVSSGKNNPFYFNSDRWFRTLYRNEWGHIRVLQRFDQRSKQMQNLENYRVVEFKSKPNTLLLPHHADADFLLVVLNGTAVLTLVNPDSRDSYILEQGHAQKIPAGTTFFLVNPDDNENLRIIKLAIPVNNPHRFQDFFLSSTEAQQSYLRGFSKNILEASFDSDFKEINRVLFGEERQQQQGEESREEGVIVELKREQIQELMKHAKSSSRKELSSQDEPFNLRNSKPIYSNKFGRWYEMTPEKNPQLKDLDVFISSVDMKEGALLLPHYSSKAIVIMVINEGEAKIELVGLSDQQQQKQQEESLEVQRYRAELSEDDVFVIPAAYPVAINATSNLNFFAFGINAENNRRNFLAGGKDNVMSEIPTEVLEVSFPASGKKVEKLIKKQSESHFVDAQPEQQQREEGHKGRKGSLSSILGSLY", "soluble on expression in E. coli": "soluble"}
{"sequence": "MGSDKIHHHHHHMVFPISLEGYHLEEVVIIGGGVAGLSCLNALLDQGISALLIEGSTIGTPKMCGEFLAPIAAQQLQLWDVDPLIPIPHAAFYAGIRQLDIHFTKPSAAISRSDVELKLAARARRLGGRIRENTYLEYTTPATERTPFYFKLSTGEIIEAKSAFFATGKLSNNKDNKKIALPYFGFKLHFSHTENDHSLKMFSLDKAYLGIVPITETISNCACLAKREAVDAATSPEEHFRHLTQSHPVLKKIFTPLDLSAIDILSGRAPAFTQKKPPNWPNSYWIGDTLASLYPAIGSGFAHSVDSAIQAVQSYLKQQPKLYRINYSKSIKTKVLLGNVFNAALLQPKVGQLALPLLKRSPKLVNLVLKKLDYV", "soluble on expression in E. coli": "not soluble"}
{"sequence": "MDYRFGRQYRLLKTDDFSSVFAFRNRRSRDLLQVSRSNGNGLGHPRIGLVVGKKTAKRANERNYMKRVIRDWFRLNKNRLPPQDFVVRVHRKFDRATAKQARAELAQLMFGNPATGCRKQA", "soluble on expression in E. coli": "not soluble"}
{"sequence": "GMENLGDRLEVVAELSLAPGNITLTPDGRLFLSLHQFYQPEMQVAELTQDGLIPFPPQSGNAIITFDTVLGIKSDGNGIVWMLDNGNQSKSVPKLVAWDTLNNQLSRVIYLPPPITLSNSFVNDLAVDLIHNFVYISDPAPDDKAALIRVDLQTGLAARVLQGYPGIAPEDIDLVIDGVPVQIGQPDGTVIRPHLGVNGIVLDAENEWLYLSPMHSTSMYRIKSADLSNLQLTDAELGSKIERYSEKPICDGISIDKDHNIYVGDLAHSAIGVITSADRAYKLLVTDEKLSWTDSFNFGSDGYLYFDCNQLHHSAPLNAGENISAPPYYIFRLKPLAAGIVGR", "soluble on expression in E. coli": "soluble"}
{"sequence": "MKKSPKISLILEAFQNLEKAYVDLKKNLEIPKEEFVKNKLVQDRVRIDFNLAFESTMRVCRHLSAVYGVKTSSRDCLPKIAEHIGLPFADRLKKFSEFYFRYRDLKDTVSPEELYDFLKENLVLFKEFARGVVEYIKKTTGNYLLIDFDLLNEKAKFIKDSVKKIDFVLSQGEEEFKKTPMYYDRVKYFYQVAYDSLFDICKHLAPKFGIKKFGDDCLTKMVEKGVIPPEYYETVLKMTLLKNKLISTWEVSPEELYRSLKELNDKFIPVLREISKSLKLLLEKKAKEVGKEA", "soluble on expression in E. coli": "not soluble"}
{"sequence": "MGSDKIHHHHHHMPFDPKIRGPLDVRPLLQLMSAGSWQVELAHERDCHLVIWITRGQGRVLLDGQCRGFGPHTALCIPARTLFSLELGRQCIGQVLRIGEDIPCGLPETPMQIRINDMQEQGRINALFDAALREQQVADDHTAKAITSYADLVGIHLQRLWVRAPENRKPTAARRLCRAYCARLAQDAEGAFNMAGHASELGVTPTHLTRVCKQETGKTAAALLTERQLHAARSLLASTRLPMRDIAQSLGFGSAAYFTRFITQHTGSTPSDLRKKAHGAQLASGRNP", "soluble on expression in E. coli": "not soluble"}
{"sequence": "EPDLDDWFENDREDLRHFVGIYVLAHYRNRPSDVALLADAPHHEARVLRLKNGKIVTAIQIAKEGGIPKAVIDKMAKGYKPPGNIIPDMMVKHHYAKEFARLKGYRVVRIATHPDAMDMGLGSKALELLIKEAEEKGLDWVGSGFGASPELIRFWVRNGFAVVHLSPTRNPVSGEYTAIVIKP", "soluble on expression in E. coli": "not soluble"}
{"sequence": "SIVADSECRAELKDYLRFAPGGVGDSGPGEEQRESRARRGPRGPSAFIPVEEVLREGAESLEQHLGLEALMSSGRVDNLAVVMGLHPDYFTSFWRLHYLLLHTDGPLASSWRHYIAIMAAARHQCSYLVGSHMAEFLQTGGDPEWLLGLHRAPEKLRKLSEINKLLAHRPWLITKEHIQALLKTGEHTWSLAELIQALVLLTHCHSLSSFVFGCGILPEGDADGSPAPQAPTPPSEQSSPPSRDPLNNSGGFESARDVEALMERMQQLQESLLRDEGTSQEEMESRFELEKSESLLVTPSADILEPSPHPDMLCFVEDPTFGYEDFTRRGAQAPPTFRAQDYTWEDHGYSLIQRLYPEGGQLLDEKFQAAYSLTYNTIAMHSGVDTSVLRRAIWNYIHCVFGIRYDDYDYGEVNQLLERNLKVYIKTVACYPEKTTRRMYNLFWRHFRHSEKVHVNLLLLEARMQAALLYALRAITRYMT", "soluble on expression in E. coli": "not soluble"}
{"sequence": "MAHHHHHHMPRPPQRIRAQSEGVVGRWYTNYWTLHSVRYQCQLAGVEWQFGERQRPRTNYDEPHMYTDFEETKAIRDYRSRWINVNRSLVGMSRRMKESEEEARYLHFKKVQDTFWSNRKVLVNRIKSMHNQGTLQSAKDLPIKTINIKAFLAE", "soluble on expression in E. coli": "soluble"}
{"sequence": "GMTTEVKQSPRERLLEAAAALTYRDGVGIGVEALCKAAGVSKRSMYQLFESKDELLAASLKERSAAFVAKALPPADDGRSPRERILYVFERVESQAGAPDFQGCRYLAVQIELKDQAHPASRVAYQIKADLMAFFRSEAERGGASDPDLLARQLILVFDGASARAGIGADNLTGLIVPTLTTLLDAADMH", "soluble on expression in E. coli": "soluble"}
{"sequence": "MSEMSAIYRVKQYILNLIKDGELTNGSKLPSNLSIARALNVKTDDVYDGIDELITEQVVTDNFEEGTSVKVKPPFYYPLNKIISIGTMIKEAGYEAGTEYLNLDEQPATILDAEHLGIETKEPITIIERLRTANHKPVVYCLDKIAKTYLTCTDYQQSSGSMLEAIKASTNHQIMHAEMDLEAISYEPHISEVLNASPHEGLMLLKVVHYDEKHQPILYSLNYIKSSLVKFTITKSE", "soluble on expression in E. coli": "not soluble"}
{"sequence": "LYRKGGVYVVIGGAGYIGEAWSEYMIRRYQAQIVWIGRSQLNAAIQSKIDRLSALGPEPFYIAADAADKHSLQQAYEQVKKRHPHIHGIVHSAMVLFEQSLEKMKPEEFTAGLAAKIDVSIRMAQVFRQENVDFVLFFSSLVAHIKNVKQSHYASGCTFADAFAHQLSQSWA", "soluble on expression in E. coli": "not soluble"}
{"sequence": "MEKAYDFEVEAPPEVVRDYLMNPENLMKYIPHFKDLKRVDDGWELYVSWLFTIKLKVKRVFTNTDIIYLVEKSEGLIKIKSSLRFTIFPSKGGITIVRLVFFYDGPFESIVKGQADAFYRKGKEVFKTEMTKEKRIQEEQNGVKGEVSIYEMKTIFSGKINKDELEKYLEIAMVKSVNSTVVVILSDERNIIEIKFKGGELVAQKGDLDSLSSPITILIKQLEHHHHHH", "soluble on expression in E. coli": "soluble"}
